B1: IpY.20: smaller and more stable variant of ALT, SEQ ID NO: 6; tested as liposomal IpY.20 (peptide)
chain: MVSRDQAHLGPKYVGLWDFKSRTDEELSFRAGDVFHVARKEEQWWWATLLDEAGGAVAQGYVPHNYLAERETVESEPAGHAGSAALQDLAA
modifications: liposomal formulation

Experiments:
Format in all cases: cell-based
PDAC cell lines [1] = experiment: ROS-Glo assay in PDAC cells
Protocol: (§1) FIGS. 2A-2F. FIGS. 2A and 2B are Western Blots, illustrating results from assays performed with treatment naive cells to analyze the expression levels of p27. Cells were harvested with RIPA buffer supplemented with protease inhibitors. The MCF7-ALT Dox inducible cell line was used as a control. […] Cells were treated with increasing concentrations of IpY.20 for 24h. Viability was measured using the Cell Titer Glo assay (Promega). Viability was calculated relative to untreated control cells. N=4 *p<0.05. […] FIGS. 2D, 2E and 2F are graphs illustrating that IpY.20 induces ROS. Cells were treated with IpY.20 for 24 h. ROS levels were measured using ROS-Glo assay (Promega). % ROS was calculated relative to untreated control cells. N=4 *p<0.05. The MCF7-ALT inducible cell line induced ROS.

PDAC cell lines [2] = experiment: Rescue of IpY.20 effect on viability by pretreatment with inhibitors
Protocol: When the less sensitive PDAC lines were treated with IpY.20, pRIPK1 expression, a marker of necroptosis, increased (FIG. 3A). To determine if ROS-dependent induction of pRIPK1 and necroptosis was responsible for IpY.20's effect in PDAC cell lines, cells lines (A-D) were treated with N-acetyl-1-cysteine (5 mM) a ROS inhibitor, Necrostatin-1 (10 μM) which prevents RIPK1 phosphorylation and Caspase-3/7 Inhibitor, for 24 h, followed by IpY.20 for the next 24 h. N=4 *p<0.05.
(§2) When these lines were pre-treated with NAC, Nec-1, or Caspase 3/7 inhibitor followed by IpY.20 treatment, differential results were observed. N=4 *p<0.05 (FIGS. 4A-4D). NAC treatment of BxPC3 cells reduced ROS levels (FIG. 4B), but these cells were rescued by caspase treatment (FIG. 4C). […] Percent viability relative to control plotted in all cases. L3.6 (FIG. 4E), PL45 (FIG. 4F) and Panel (FIG. 4G) were rescued by NEC-1, NAC and caspase inhibition to differing extents. Biomarkers dictating response were determined.

BxPC3 = experiment: Caspase-Glo 3/7 Assay for apoptosis; conditions: treated 24 h
Text: as §2

pRIPK1 = pRIPK1 expression (marker of necroptosis)
[3] = test system: CDK4i-resistant and treatment naive breast cancer cells; experiment: Arrest of breast cancer cells
[4] = test system: Pancreatic Ductal Adenocarcinoma (PDAC) cell lines; experiment: Cell viability (Cell Titer Glo) in PDAC cell lines
Protocol: FIGS. 1A-1D. FIGS. 1A and 1B are respectively a graph and an image showing that PDAC cells are resistant to palbociclib-treatment. Cells were treated with increasing concentrations of palbociclib (PD) for 24 h before analysis for viability (Cell Titer Glo, Promega). N=4 *p<0.05. Control=untreated cells. Viability plotted relative to growth in the presence of control. FIGS. 1C and 1D show PL5 cells treated with increasing concentrations of IpY.20 and E′NP before analysis of Cell Titer Glo analysis.
as §1, with “Cells were treated with IpY.20 for 24 h.” left out, “N=4 *p<0.05. The MCF7-ALT inducible cell line induced ROS.” left out
To test whether PDAC cells might be resistant to CDK4/6 inhibition due to activation of CDK2, experiments were performed. […] Some non-specific liposome toxicity was detected at the high concentrations. […]

[5] = L3.6, PL45 and Panel, to differing extents
[6] = PDAC lines that increased pRIPK1, pretreatment 24 h, then IpY.20 24 h

Row | Molecule | ROS levels (PDAC cell lines [1]; BxPC3 cells, pretreatment followed by IpY.20) | rescue from IpY.20 effect (PDAC cell lines [2]; [5]) | rescue from IpY.20 effect (PDAC cell lines [2]; [6]) | caspase expression (BxPC3) | pRIPK1 expression (pRIPK1; Super sensitive PDAC lines) | pRIPK1 expression (pRIPK1; less sensitive PDAC lines) | ROS levels (PDAC cell lines [1]; treated 24 h, relative to untreated control cells) | ability to arrest cells [3] | sensitivity to treatment ([4]; PL5, Panc1, L3.6 and BXPC3) | viability of CDK4i resistant pancreatic cell lines ([4]; increasing concentrations for 24h, relative to untreated control)
1 | CC(=O)N[C@@H](CS)C(=O)O [NAC, N-acetyl-1-cysteine] | reduced | rescued | rescued | – | – | – | – | – | – | –
2 | CN1C(=O)C(Cc2c[nH]c3ccccc23)NC1=S (stereo not drawn) [Nec1, Necrostatin-1] | – | rescued | rescued | – | – | – | – | – | – | –
3 | B1 | – | – | – | strongly induced | did not exhibit induction | increased | induces ROS | behaved similarly to IpY.1 | super sensitivity | reduces viability

From US20260234204A1, “BRK PEPTIDES AND METHODS OF USE” (Concarlo Therapeutics, Inc., priority 2023, published 2026)
